Key:
[1] = Visual assessment of adverse effect on injection site in pigs; type: in vivo; conditions: extra dose of 150 μg of Compound A alone; 2 pigs
Protocol: A brief adverse effect visual assessment on injection site was performed on 2 random chosen pigs by testing an extra dose of 150 μg of Compound A alone.

[2] = Antigen fragment solubility/stability (Table 1); type: physicochemical
Description: Antigen (abbreviated as “Ag” herein) fragments employed in the present invention typically have certain properties useful in conjugation. In one aspect, the antigen fragments are proteins that are stable in solution and not prone to any substantial aggregation. In another aspect the antigen fragment contains a minimum of three available amines at which conjugation can occur and have a size of less than 500 kD.
Such fragments are readily commercially available and/or can be readily made by those skilled in the ar.

Compound | visual adverse effect of the injected site [1] | Solubility [2] | Stability [2]
CCCCOc1nc(N)c2[nH]c(=O)n(CC3CCNCC3)c2n1 [Compound A] | No visual adverse effect of the injected site was observed |  | 
Tetanus Toxoid |  | 30 mg/mL | years

Reference: patent publication US11207404B2, “Compositions and uses” (priority 2015, dated 2021)
